# In the supplement of paper PMC10724198:
# ± gives the standard deviation of the averaged measurements.
# System: Saccharomyces cerevisiae
# Assay: protein stability index of tFT-peptide fusion (C-terminal peptide) (PSI (0-1 scale)); higher = more stable (slower turnover)
# Details: genetic background: wild type; temperature: 30 C
# Procedure: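 Multiplexed protein stability (MPS) profiling in S. cerevisiae. Random 12-aa peptides (tFT-X12 library) are fused to the C-terminus of a sfGFP-mCherry tandem fluorescent timer, after mCherry and a GGGS linker. Cells are FACS-sorted into 8 mCherry/sfGFP bins and deep-sequenced. The protein stability index (PSI) is the read-weighted bin average, scaled from 0 (unstable) to 1 (stable). Only peptides with >10 reads are reported; cells were grown at 30 °C in SC-His with glucose.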
# 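Further: PSI is a weighted mean of sequencing reads over stability bins, variants kept only with over 10 reads, mCherry proximal and sfGFP distal, peptide attached via GGGS linker.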
row,Sequence,protein stability index
1,PPAPPPPLLNLP,0.714 ± 0.014
2,GHRTIPHSNCLS,0.65 ± 0.0099
3,PLAPPLPPPGPL,0.74 ± 0.022
4,SPGCPNRGAFEI,0.871 ± 0.07
5,PRSCPPFLPSLP,0.727 ± 0.0099
6,AWFIRSLVAYFL,0.545 ± 0.017
7,RGKTIQGNADPK,0.672 ± 0.032
8,APLPRRQFPLSP,0.687 ± 0.011
9,GLARPLYALYRR,0.618 ± 0.081
10,GELLLVAGMHWL,0.681 ± 0.023
11,RGMVPREKHQNS,0.683 ± 0.013
12,SRFSPSLPPFLP,0.661 ± 0.055
13,VYVLHNVMCSSD,0.632 ± 0.051
14,PRPPPSPTPPLT,0.69 ± 0.095
15,PRPPLRPPPISP,0.68 ± 0.066
16,GYSPLHPILLGL,0.577 ± 0.013
17,GGAVAVRGGSAA,0.636 ± 0.035
18,RRTTGLGWSGRP,0.644 ± 0.025
19,TEKQSGRINTAI,0.653 ± 0.034
20,EFMRHAFTPLPT,0.733 ± 0.041
21,SSFFAFYSRRRF,0.714 ± 0.052
22,DGWSEAGQGGKG,0.679 ± 0.034
23,LISGGLSWGDCW,0.743 ± 0.0099
24,LVLVRPGSVSPE,0.731 ± 0.018
25,KRRKREEKKSMT,0.742 ± 0.097

row,Sequence,protein stability index
1,VPRTGSLHARLP,0.715 ± 0.03
2,SGCGGKFGCALR,0.74 ± 0.045
3,PTPTAPEPIHPS,0.61 ± 0.0025
4,LGNMRTVEGWGG,0.684 ± 0.051
5,PPAALPPSTLFS,0.673 ± 0.04
6,MKRQQENNAPGR,0.616 ± 0.018
7,PPPSALPPLPQP,0.712 ± 0.01
8,IFYCPPVPTFPL,0.697 ± 0.024
9,PTLPACFCPPAP,0.639 ± 0.097
10,PLPPRPPPLPLP,0.716 ± 0.013
11,FGTKHFGGWGGV,0.745 ± 0.015
12,VVCGARGDGRCE,0.6834 ± 0.0068
13,HLVPYVVKHLVP,0.6785 ± 0.0062
14,LLRRLILLQATW,0.5677 ± 0.0053
15,PPIPLPPLAPPL,0.699 ± 0.038
16,TKIKKKTQEGSR,0.698 ± 0.029
17,GPSHPPHLPPPV,0.6855 ± 0.001
18,TSVVRIGVYRAS,0.613 ± 0.037
19,FPFGRMNVSGGC,0.701 ± 0.026
20,IGGAMLSPLKVR,0.55 ± 0.021
21,PPLPPPVYHSLP,0.6855 ± 0.0027
22,LFPSPPPPRSSL,0.7697 ± 0.005
23,APPRPTRSHSAL,0.657 ± 0.043
24,GVRGGGAVGGLR,0.65 ± 0.056
25,GDVLLLGGAGER,0.671 ± 0.07

row,Sequence,protein stability index
1,VDCTCLPKRTYE,0.643 ± 0.1
2,RKGDRAQRWRDL,0.655 ± 0.12
3,GGKNVKCLDRGL,0.693 ± 0.014
4,LCSIESGPICIL,0.676 ± 0.0097
5,HSCPLLLAPPPS,0.608 ± 0.058
6,GGGGSRGRVGDI,0.7182 ± 0.0022
7,ETKSDRHDRTGT,0.655 ± 0.015
8,FVVGGGLRMGAG,0.62253 ± 0.00043
9,WVTQHAMEVGRI,0.712 ± 0.084
10,PAVHLYFIPPTG,0.644 ± 0.038
11,EVGQYVEWSCLL,0.671 ± 0.019
12,SIECSLCYSLFD,0.663 ± 0.032
13,PRGGLGTGWGRR,0.731 ± 0.079
14,CSSSALADLLPW,0.6537 ± 0.0022
15,HMRPSTRLMPAG,0.593 ± 0.01
16,FLSRFLSCLFYF,0.576 ± 0.028
17,RWGVGGSVSFWW,0.7 ± 0.047
18,RREKGEARGRGG,0.618 ± 0.013
19,PPRSFLPPRFSW,0.702 ± 0.066
20,VGCACGYGGCGL,0.682 ± 0.058
21,WGGSGRVWVKLG,0.696 ± 0.055
22,GVSHKKGCPWLG,0.641 ± 0.043
23,VSRGGAVRLSTQ,0.7027 ± 0.0027
24,WRCYCFLGLDEG,0.653 ± 0.029
25,PPPPLPHPALPP,0.675 ± 0.04

row,Sequence,protein stability index
1,KGHMYEFRKGVR,0.68 ± 0.011
2,VGDGQGWGGQGG,0.688 ± 0.0075
3,RKYKNKRSKKEK,0.755 ± 0.1
4,RAHWGEFGYSLF,0.716 ± 0.018
5,TPLPLPPPRPSP,0.685 ± 0.0031
6,TLYEVHQSENSR,0.666 ± 0.016
7,FLASPTPSHPRL,0.787 ± 0.091
8,VWGGGLLVGAGW,0.669 ± 0.035
9,YIGGMRSHYASP,0.734 ± 0.12
10,WLLKGTVTLMMW,0.5687 ± 0.0031
11,RFGRGAGWGLGG,0.66 ± 0.0092
12,GRPTRRHRGRLV,0.709 ± 0.028
13,LASPPIIVFSQM,0.556 ± 0.016
14,LRSGFVVTLSLS,0.621 ± 0.037
15,QFERSVFLANAL,0.679 ± 0.023
16,PPPPAPYPNYYS,0.542 ± 0.0062
17,PGLNHLTPMLPP,0.635 ± 0.038
18,SRLGVIRGIGLV,0.67 ± 0.025
19,LLSLALFACSIC,0.63 ± 0.023
20,FRASLFFVWLPS,0.59 ± 0.085
21,PPPRPLPVLFLP,0.611 ± 0.06
22,SMGGRVGDLACQ,0.725 ± 0.042
23,CARAGLGFRWVG,0.621 ± 0.031
24,YPLPFRHASIPF,0.606 ± 0.096
25,DGELFPDEPFYL,0.801 ± 0.049

row,Sequence,protein stability index
1,VLDPRGEFFSHP,0.657 ± 0.044
2,QIYRMKNRYNKS,0.7 ± 0.038
3,FVSLEVLFISSL,0.5609 ± 0.0016
4,QPPLPTRLNHRQ,0.651 ± 0.045
5,HGPGGFRAGTGE,0.724 ± 0.027
6,PSRLSLLWVNPP,0.8 ± 0.081
7,PPPPPVLPNRIP,0.781 ± 0.04
8,SLRPPLHSPSPS,0.674 ± 0.016
9,LPRPTRLRTTPA,0.685 ± 0.044
10,RRRTDDSTPGRA,0.686 ± 0.025
11,SRTNVKVRKTGV,0.6916 ± 0.0059
12,GRVRIFDCVVRL,0.753 ± 0.011
13,RATLGVSGRCWV,0.6802 ± 0.001
14,VCVVGGSILRAV,0.711 ± 0.048
15,GLCVLVASCGRG,0.664 ± 0.15
16,PPPPPHLPPLTP,0.711 ± 0.054
17,SLIACQGPIPCG,0.648 ± 0.038
18,KKKKQNKKKIKK,0.68 ± 0.086
19,SSFLAPFRFPLL,0.675 ± 0.093
20,SVNRRTVYRKNK,0.764 ± 0.17
21,SSMCPDGGYQWV,0.686 ± 0.0074
22,CDYAWSSSASLG,0.56 ± 0.017
23,HLFAISGGKERI,0.6966 ± 0.0039
24,LVYLASGMYRFV,0.607 ± 0.02
25,RWSVIHARLLSP,0.846 ± 0.19

row,Sequence,protein stability index
1,GVEGAVGGRRGA,0.703 ± 0.029
2,LVCRYLGLRCSD,0.597 ± 0.035
3,EGEGAGRWCGRG,0.66 ± 0.051
4,PALQHTVPPPPQ,0.579 ± 0.012
5,LISSTLRDQKDE,0.701 ± 0.047
6,LFQVRLVDLSRI,0.674 ± 0.049
7,VVIFYSSESRRR,0.724 ± 0.03
8,TRGSLIFACSVF,0.576 ± 0.033
9,YGAGLRIGQFRC,0.747 ± 0.1
10,CIATINKMTRRI,0.67 ± 0.11
11,RYKSVPLHCISN,0.671 ± 0.022
12,KYVYFAPVLDVI,0.659 ± 0.033
13,VGRGGPGVGGSW,0.736 ± 0.043
14,RGGPQARRLRPY,0.706 ± 0.063
15,TLSFPFRPLRLA,0.48 ± 0.033
16,PTPPRPGPIITF,0.699 ± 0.031
17,FVASRFLRCLVL,0.495 ± 0.017
18,LKALNKFEDTGN,0.668 ± 0.018
19,HTGTCSVLPHTL,0.663 ± 0.052
20,FPSPPPPAPLPP,0.763 ± 0.039
21,SYTIPPSTYLPS,0.704 ± 0.043
